# Test results taken from paper PMC5574551.
# Tests used:
# [1] = biological target: taxol-stabilized microtubules (porcine brain tubulin) (porcine) (UniProt P02550); assay: single molecule observation (TIRF microscopy); as a2, 1 nM Alexa 647-labeled dynein with 20 nM BICD2 (full length), no dynactin
# [2] = biological target: taxol-stabilized microtubules (porcine brain tubulin) (porcine) (UniProt P02550); assay: single molecule observation (TIRF microscopy); 1 nM Alexa 647-labeled dynein alone on taxol-stabilized microtubules held on glass by anti-β tubulin antibody; SM buffer (12 mM Pipes-KOH pH 6.8, 25 mM KAce, 1 mM ATP, 2 mM DTT), 25°C; total residence time in a window of 10 s and 10 μm of microtubule
# [3] = biological target: taxol-stabilized microtubules (porcine brain tubulin) (porcine) (UniProt P02550); assay: single molecule observation (TIRF microscopy); as a2, 1 nM Alexa 647-labeled dynein with 2 nM 1B isoform and 20 nM BICD2 (DDB 1B)
# [4] = biological target: dynactin complex containing the DCTN1B (1B) isoform (human (cDNA from HEK293 cells) | human (endogenous in HEK293)) (UniProt Q13561); assay: pull-down; TALON Dynabeads pull-down of purified proteins; dynein and dynactin mixed in 10 mM Pipes-NaOH pH 7.0, 75 mM NaCl, 45 mM imidazole, 0.01% Tween 20, 10 min at 25°C; bound and unbound fractions on SDS-PAGE, dynein heavy chain band quantified by densitometry
# [5] = biological target: taxol-stabilized microtubules (porcine brain tubulin) (porcine) (UniProt P02550); assay: single molecule observation (TIRF microscopy); as a2, 1 nM Alexa 647-labeled dynein with 2 nM 1A isoform and 20 nM BICD2 (DDB 1A)
# [6] = biological target: taxol-stabilized microtubules (porcine brain tubulin) (porcine) (UniProt P02550); assay: single molecule observation (TIRF microscopy); as a2, 1 nM Alexa 647-labeled dynein with 2 nM 1A isoform, no BICD2
# [7] = biological target: taxol-stabilized microtubules (porcine brain tubulin) (porcine) (UniProt P02550); assay: single molecule observation (TIRF microscopy); as a2, 1 nM Alexa 647-labeled dynein with 2 nM p135 isoform
# [8] = biological target: taxol-stabilized microtubules (porcine brain tubulin) (porcine) (UniProt P02550); assay: single molecule observation (TIRF microscopy); as a2, 1 nM Alexa 647-labeled dynein with 2 nM 1B isoform, no BICD2
# [9] = biological target: taxol-stabilized microtubules (porcine brain tubulin) (porcine) (UniProt P02550); assay: single molecule observation (TIRF microscopy); as a2, 1 nM Alexa 647-labeled dynein with 2 nM 1BΔCC1 mutant
# [10] = biological target: taxol-stabilized microtubules (porcine brain tubulin) (porcine) (UniProt P02550); assay: single molecule observation (TIRF microscopy); 1 nM GFP-labeled dynactin isoform, mutant or fragment alone on taxol-stabilized microtubules held on glass; SM buffer, 1 mM ATP, 25°C; total residence time in a window of 10 s and 10 μm of microtubule
total residence time on microtubules (with BICD2) [1] [s],total residence time on microtubules [2] [s],total residence time on microtubules (with 1B isoform and BICD2) [3] [s],Kd [4] [nM],stoichiometry N [4],total residence time on microtubules (with 1A isoform and BICD2) [5] [s],fraction not dissociated from microtubules during the observation of 30 s (with 1A isoform) [6] [%],total residence time on microtubules (with 1A isoform) [6] [s],total residence time on microtubules (with p135 isoform) [7] [s],"duration on microtubules, τ (with 1B isoform) [8] [s]",total residence time on microtubules (with 1B isoform) [8] [s],total residence time on microtubules (with 1BΔCC1 mutant) [9] [s],total residence time on microtubules [10] [s],fraction not dissociated from microtubules during the observation of 30 s [10] [%],Substance
51.8,64.9,19.2,2.3,1,49.1,79,53.2,23.8,1.2,4.7,54,,,"cytoplasmic dynein (recombinant dynein complex), Q14204 1-4646"
,,,,,,,,,,,,50,,dynactin complex containing the 1BΔCC1 mutant of DCTN1 (from UniProt P61163 1-376)
,,,,,,,,,,,,60.1,72,dynactin complex containing the DCTN1A (1A) isoform (from UniProt Q14203-1 1-1278; Q13561 1-401; P61163 1-376)
